Experiments:
[1] = target: murine GPC3-his protein (Sino Biological, Cat. No. 50989-M08B) (murine) (UniProt Q8CFZ4); experiment: ELISA, coated murine GPC3-His
[2] = target: monkey GPC3 on HEK293T-monkey GPC3 cells (monkey); experiment: FACS on HEK293T-monkey GPC3 cells
[3] = target: monkey GPC3-His protein (monkey); experiment: ELISA, monkey GPC3-His coated; antibody 66.66 nM
[4] = target: monkey GPC3-His protein (monkey); experiment: ELISA, monkey GPC3-His coated; antibody 0.53 nM
[5] = target: monkey GPC3-His protein (monkey); experiment: ELISA, monkey GPC3-His coated; antibody 13.33 nM
[6] = target: monkey GPC3-His protein (monkey); experiment: ELISA, monkey GPC3-His coated; antibody 0.0008 nM
[7] = target: monkey GPC3-His protein (monkey); experiment: ELISA, monkey GPC3-His coated; antibody 0.004 nM
[8] = target: monkey GPC3-His protein (monkey); experiment: ELISA, monkey GPC3-His coated; antibody 0.02 nM
[9] = target: monkey GPC3-His protein (monkey); experiment: ELISA, monkey GPC3-His coated; antibody 2.67 nM
[10] = target: monkey GPC3-His protein (monkey); experiment: ELISA, monkey GPC3-His coated; antibody 0.11 nM

Chain of murine GPC3-his protein (Sino Biological, Cat. No. 50989-M08B) (murine) (Q8CFZ4 25-558 limits assumed): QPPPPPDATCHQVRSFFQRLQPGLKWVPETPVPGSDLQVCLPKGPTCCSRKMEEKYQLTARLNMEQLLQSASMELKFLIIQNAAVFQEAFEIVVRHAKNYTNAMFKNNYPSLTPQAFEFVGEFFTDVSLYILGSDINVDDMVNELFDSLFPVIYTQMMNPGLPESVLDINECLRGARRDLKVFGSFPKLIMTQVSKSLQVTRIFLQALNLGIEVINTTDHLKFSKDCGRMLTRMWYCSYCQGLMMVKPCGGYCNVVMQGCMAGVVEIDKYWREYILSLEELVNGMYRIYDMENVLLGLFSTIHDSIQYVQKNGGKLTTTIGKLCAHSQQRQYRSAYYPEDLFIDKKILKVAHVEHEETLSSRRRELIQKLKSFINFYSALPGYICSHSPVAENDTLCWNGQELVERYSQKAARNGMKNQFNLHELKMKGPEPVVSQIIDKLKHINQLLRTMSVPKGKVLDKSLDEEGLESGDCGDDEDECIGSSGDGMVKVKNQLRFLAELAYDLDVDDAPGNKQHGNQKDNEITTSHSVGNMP

B1: F1.57.21 human-murine chimeric antibody (antibody, human IgG1, kappa, V domains shown)
VH: QVQLQQSGAELARPGASVKLSCKASGYTFTSYGISWVKQITGQGLEWIGEIYPRSESTYYNEKFKGKATLTADKSSSTAYMELRSLTSEDSAVYFCARDYGNIYSFAYWGQGTLVTVSA
VL: DIQMTQSPASLSASVGETVTITCRTSENIYSYLAWYQQKQGKSPQLLVYNAKTLAEGVPSRFSGSGSGTQFSLKINSLQPEDFGSYYCQHHYGTPLTFGAGTKLELKR
- OD450 at 0.0001 nM antibody [1]: 0.05 OD450 nm
- OD450 at 0.001 nM antibody [1]: 0.06 OD450 nm
- OD450 at 0.01 nM antibody [1]: 0.07 OD450 nm
- OD450 at 0.1 nM antibody [1]: 0.13 OD450 nm
- OD450 at 1 nM antibody [1]: 0.2 OD450 nm
- OD450 at 10 nM antibody [1]: 0.79 OD450 nm
- OD450 at 100 nM antibody [1]: 0.65 OD450 nm

B2: F1.73.9 human-murine chimeric antibody (antibody, human IgG1, kappa, V domains shown)
VH: QVQLKQSGAELVRPGASVKLSCKASGYTFTDYYINWVKQRPGQGLEWIARIYPGSGNTYYNEKFKGKATLTAEKSSSTAYMQFSSLTSEDSAVYFCACSTYYTMDYWGQGTSVTVSS
VL: QIVLTQSPAIMSASLGERVTMTCTASSGVSSSYLHWYQQKPGSSPKLWIYTTSNLASGVPARFSGSGSGTSYSLTISSMEAEDAATYYCHQYHRSPYTFGGGTKLEIKR
- OD450 at 0.0001 nM antibody [1]: 0.05 OD450 nm
- OD450 at 0.001 nM antibody [1]: 0.06 OD450 nm
- OD450 at 0.01 nM antibody [1]: 0.06 OD450 nm
- OD450 at 0.1 nM antibody [1]: 0.58 OD450 nm
- OD450 at 1 nM antibody [1]: 0.41 OD450 nm
- OD450 at 10 nM antibody [1]: 0.86 OD450 nm
- OD450 at 100 nM antibody [1]: 0.52 OD450 nm

B3: F1.115.8 human-murine chimeric antibody (antibody, human IgG1, kappa, V domains shown)
VH: EVQLQQSGPELVKPGASVKMSCKASGYTFTEYYMHWVKQSHGKSLEWIGYIYPNNGGNGYNQKFKGKATLTVDKSSSTAYMGLRSLTSEDSAVYYCVRGYYSNWYFDVWGTGTTVTVSS
VL: DVLMTQTPLSLPVSLGDQASISCRSSQSIVHSNGKTYLEWYLQKPGQSPKLLIYKVSNRFSGVPDRFSGSGSGTDFTLKISRVEAEDLGVYYCFQGSHVPFTFGSGTKLEIKR
- OD450 at 0.0001 nM antibody [1]: 0.05 OD450 nm
- OD450 at 0.001 nM antibody [1]: 0.05 OD450 nm
- OD450 at 0.01 nM antibody [1]: 0.07 OD450 nm
- OD450 at 0.1 nM antibody [1]: 0.34 OD450 nm
- OD450 at 1 nM antibody [1]: 0.4 OD450 nm
- OD450 at 10 nM antibody [1]: 0.7 OD450 nm
- OD450 at 100 nM antibody [1]: 0.6 OD450 nm

B4: hAb005LH3L1a (antibody, human IgG1, V domains shown)
VH: EVQLVQSGAEVKKPGASVKVSCKASGYTFTDYEMHWVRQAPGQGLEWIGAIDPETGNTAYIQKFKGRATLTTDKSTSTAYMELRSLRSDDTAVYYCTRFYSYSHWGQGTTVTVSS
VL: DIVMTQTPLSLPVTPGEPASISCRSSQSLVHSDGNTYLHWYLQKPGQSPQLLIYKVSNRFSGVPDRFSGSGSGTDFTLKISRVEAEDVGVYYCSQNTHVPPTFGGGTKVEIK
- EC50 [2]: 112 nM
- Max MFI [2]: 2920 MFI
- OD450 nm [3]: 0.527
- OD450 nm [4]: 0.042
- OD450 nm [5]: 0.161
- OD450 nm [6]: 0.04
- OD450 nm [7]: 0.041
- OD450 nm [8]: 0.039
- OD450 nm [9]: 0.098
- OD450 nm [10]: 0.038

B5: hAb005LH3L1b (antibody, human IgG1, V domains shown)
VH: EVQLVQSGAEVKKPGASVKVSCKASGYTFTDYEMHWVRQAPGQGLEWIGAIDPETGNTAYIQKFKGRATLTTDKSTSTAYMELRSLRSDDTAVYYCTRFYSYSHWGQGTTVTVSS
VL: DIVMTQTPLSLPVTPGEPASISCRSSQSLVHSNRNTYLHWYLQKPGQSPQLLIYKVSNRFSGVPDRFSGSGSGTDFTLKISRVEAEDVGVYYCSQNTHVPPTFGGGTKVEIK
- EC50 [2]: 2.37 nM
- Max MFI [2]: 22100 MFI
- OD450 nm [3]: 1.18
- OD450 nm [4]: 1.27
- OD450 nm [5]: 1.27
- OD450 nm [6]: 0.088
- OD450 nm [7]: 0.237
- OD450 nm [8]: 0.663
- OD450 nm [9]: 1.33
- OD450 nm [10]: 1.11

B6: hAb006LH1L1 (antibody, human IgG1, V domains shown)
VH: EVQLVQSGAEVKKPGSSVKVSCKASGYTFSDYEIHWVRQAPGQGLEWMGAIDPKTGNTAYNQKFMGRVTITADKSTSTAYMELSSLRSEDTAVYYCTRYFSFAYWGQGTLVTVSS
VL: DIVMTQTPLSLPVTPGEPASISCRSSQTFVHSNGNTYLQWYLQKPGQSPQLLIYKVSNRFSGVPDRFSGSGSGTDFTLKISRVEAEDVGVYYCFQGSHVPYTFGQGTKLEIK
- EC50 [2]: 1.53 nM
- Max MFI [2]: 33500 MFI
- OD450 nm [3]: 2.48
- OD450 nm [4]: 2.5
- OD450 nm [5]: 2.56
- OD450 nm [6]: 0.121
- OD450 nm [7]: 0.369
- OD450 nm [8]: 1.1
- OD450 nm [9]: 2.43
- OD450 nm [10]: 2.02

B7: hAb006LH3L1 (antibody, human IgG1, V domains shown)
VH: EVQLVQSGAEVKKPGSSVKVSCKASGYTFTDYEIHWVRQAPGQGLEWMGAIDPKTGNTAYNQKFMGRVTLTADKSTSTAYMELSSLRSEDTAVYYCTRYFSFAYWGQGTLVTVSS
VL: DIVMTQTPLSLPVTPGEPASISCRSSQTFVHSNGNTYLQWYLQKPGQSPQLLIYKVSNRFSGVPDRFSGSGSGTDFTLKISRVEAEDVGVYYCFQGSHVPYTFGQGTKLEIK
- EC50 [2]: 1.7 nM
- Max MFI [2]: 34600 MFI
- OD450 nm [3]: 2.52
- OD450 nm [4]: 2.1
- OD450 nm [5]: 2.44
- OD450 nm [6]: 0.116
- OD450 nm [7]: 0.294
- OD450 nm [8]: 0.911
- OD450 nm [9]: 2.36
- OD450 nm [10]: 1.75

B8: hAb007LH2L1 (antibody, human IgG1, V domains shown)
VH: EVQLVQSGAEVKKPGSSVKVSCKASGYTFTDYEMHWVRQAPGQGLEWMGTIDPETGNTAYNQKFKGRVTITADKSTSTAYMELSSLRSEDTAVYYCTRPYSLTYWGQGTLVTVSS
VL: DIVMTQTPLSLPVTPGEPASISCRSSQSFVHSNGDTYLQWYLQKPGQSPQLLIYKVSNRFSGVPDRFSGSGSGTDFTLKISRVEAEDVGVYYCFQGSHVPYTFGQGTKLEIK
- EC50 [2]: 14.8 nM
- Max MFI [2]: 37800 MFI
- OD450 nm [3]: 2.57
- OD450 nm [4]: 2.31
- OD450 nm [5]: 2.47
- OD450 nm [6]: 0.101
- OD450 nm [7]: 0.253
- OD450 nm [8]: 0.707
- OD450 nm [9]: 2.47
- OD450 nm [10]: 1.74

B9: hAb007LH3L1 (antibody, human IgG1, V domains shown)
VH: EVQLVQSGAEVKKPGSSVKVSCKASGYTFTDYEMHWVRQAPGQGLEWMGTIDPETGNTAYNQKFKGRVTLTADKSTSTAYMELSSLRSEDTAVYYCTRPYSLTYWGQGTLVTVSS
VL: DIVMTQTPLSLPVTPGEPASISCRSSQSFVHSNGDTYLQWYLQKPGQSPQLLIYKVSNRFSGVPDRFSGSGSGTDFTLKISRVEAEDVGVYYCFQGSHVPYTFGQGTKLEIK
- EC50 [2]: 13.6 nM
- Max MFI [2]: 37400 MFI
- OD450 nm [3]: 2.55
- OD450 nm [4]: 2.17
- OD450 nm [5]: 2.39
- OD450 nm [6]: 0.079
- OD450 nm [7]: 0.198
- OD450 nm [8]: 0.368
- OD450 nm [9]: 2.39
- OD450 nm [10]: 1.12

B10: hAb007LH3L1b (antibody, human IgG1, V domains shown)
VH: EVQLVQSGAEVKKPGSSVKVSCKASGYTFTDYEMHWVRQAPGQGLEWMGTIDPETGNTAYNQKFKGRVTLTADKSTSTAYMELSSLRSEDTAVYYCTRPYSLTYWGQGTLVTVSS
VL: DIVMTQTPLSLPVTPGEPASISCRSSQSFVHSNRDTYLQWYLQKPGQSPQLLIYKVSNRFSGVPDRFSGSGSGTDFTLKISRVEAEDVGVYYCFQGSHVPYTFGQGTKLEIK
- EC50 [2]: 13.7 nM
- Max MFI [2]: 35900 MFI
- OD450 nm [3]: 2.58
- OD450 nm [4]: 1.95
- OD450 nm [5]: 2.47
- OD450 nm [6]: 0.069
- OD450 nm [7]: 0.103
- OD450 nm [8]: 0.252
- OD450 nm [9]: 2.37
- OD450 nm [10]: 0.801

Source: patent publication US20260116991A1
